In patent publication US20120316113A1, “FGF BASED FIBRIN BINDING PEPTIDES” (Baxter Healthcare S.A., priority 2011, published 2012):
“Also recorded” adds a separate entry of the source.

Assays:
[1] = target: T1, fibrinogen (Homo sapiens, UniProt P02671+P02675+P02679); test: Surface plasmon resonance (SPR) binding to fibrinogen coupled to gold sensor chip; details: for binding signal (SPR): fibrinogen on sensor chip, fitted association curves
T1 sequence (P02671 20-629 limits assumed): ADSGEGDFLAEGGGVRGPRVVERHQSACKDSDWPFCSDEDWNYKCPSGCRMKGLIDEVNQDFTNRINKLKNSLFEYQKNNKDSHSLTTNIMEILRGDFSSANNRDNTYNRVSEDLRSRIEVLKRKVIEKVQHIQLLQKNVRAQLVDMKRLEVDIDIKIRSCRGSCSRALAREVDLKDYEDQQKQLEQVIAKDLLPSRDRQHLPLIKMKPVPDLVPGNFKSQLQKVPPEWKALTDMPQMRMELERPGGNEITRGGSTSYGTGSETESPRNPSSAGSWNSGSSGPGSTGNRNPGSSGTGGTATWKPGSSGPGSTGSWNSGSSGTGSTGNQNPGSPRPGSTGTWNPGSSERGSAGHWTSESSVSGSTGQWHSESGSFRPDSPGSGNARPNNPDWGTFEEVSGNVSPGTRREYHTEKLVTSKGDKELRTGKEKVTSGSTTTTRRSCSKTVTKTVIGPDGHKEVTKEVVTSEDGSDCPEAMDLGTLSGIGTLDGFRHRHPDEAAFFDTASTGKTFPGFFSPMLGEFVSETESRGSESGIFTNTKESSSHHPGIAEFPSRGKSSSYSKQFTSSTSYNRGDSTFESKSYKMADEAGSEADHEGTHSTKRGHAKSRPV
T1 sequence (P02675 31-491): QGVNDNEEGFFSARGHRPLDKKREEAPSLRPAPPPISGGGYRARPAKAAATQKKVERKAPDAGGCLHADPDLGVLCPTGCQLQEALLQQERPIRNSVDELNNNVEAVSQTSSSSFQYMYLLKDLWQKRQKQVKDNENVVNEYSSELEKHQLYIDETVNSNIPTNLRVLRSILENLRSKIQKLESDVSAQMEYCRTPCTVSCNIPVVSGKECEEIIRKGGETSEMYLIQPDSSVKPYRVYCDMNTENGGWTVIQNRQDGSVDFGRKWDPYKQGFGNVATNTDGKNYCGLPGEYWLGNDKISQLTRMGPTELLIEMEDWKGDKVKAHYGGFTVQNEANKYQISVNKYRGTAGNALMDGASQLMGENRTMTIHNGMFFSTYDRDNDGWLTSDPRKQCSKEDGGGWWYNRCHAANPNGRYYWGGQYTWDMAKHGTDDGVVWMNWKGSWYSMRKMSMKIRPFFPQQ
T1 sequence (P02679 27-433 limits assumed): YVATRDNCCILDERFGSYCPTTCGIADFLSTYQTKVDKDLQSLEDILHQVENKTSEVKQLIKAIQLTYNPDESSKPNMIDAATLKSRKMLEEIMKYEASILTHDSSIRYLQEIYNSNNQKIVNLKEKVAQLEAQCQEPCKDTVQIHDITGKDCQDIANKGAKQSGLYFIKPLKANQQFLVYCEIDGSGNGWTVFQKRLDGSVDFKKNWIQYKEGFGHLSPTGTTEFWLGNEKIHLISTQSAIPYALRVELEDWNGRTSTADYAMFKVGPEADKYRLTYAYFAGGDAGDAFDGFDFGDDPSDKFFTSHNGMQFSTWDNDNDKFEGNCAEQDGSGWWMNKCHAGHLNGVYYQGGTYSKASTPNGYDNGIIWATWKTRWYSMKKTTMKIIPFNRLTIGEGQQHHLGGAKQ
Method: (§1) A polystyrene 96-well plate (Nunc® Maxisorp EUSA-plates) was coated with 1 mg/ml fibrinogen (Tisseel®, Baxter AG, Vienna) overnight at 4° C. and then blocked with blocking solution (PBS+1% BSA) for 2 hours at room temperature CRT). After washing three times with PBS, purified peptides were added in various dilutions to the plate and incubated for 1 hour at RT. After the three times washing with PBS, a monoclonal anti-His6-peroxidase antibody (Sigma-Aldrich, Vienna), diluted in PBS+0.1% Tween (Sigma-Aldrich, Vienna) was added and incubated for 1 hour at RT. Finally, the plate was washed three times with PBS again and wells were incubated with o-phenylenediaminehydrochlorid substrate. Absorbance was measured at 492 nm and 620 nm. For fibrin binding analysis, the plate was first coated with fibrinogen overnight at 4° C. and then incubated with 10 I.U./ml thrombin (Tisseel, Baxter AG, Vienna) for 30 minutes at 37° C. The following procedure was the same as described above. For the surface plasmon resonance (SPR) method fibrinogen was coupled to a gold sensor chip (10% COOH—(PEG)6-C11—SH, 90% OH(PEG)3-C11—SH; Reichert Analytical, NY, USA) by amine chemistry using EDC (1-ethyl-3-[3-dimethylaminopropyl]carbodiimide hydrochloride) and NHS (N-hydroxysuccinimide) (Pierce, Ill., USA). Uncoupled sites on the gold sensor chip were blocked with 1 M ethanolamine pH 8.5 (Sigma-Aldrich, MO, USA). The purified recombinant proteins and peptides were passed over the chip's surface at a flow rate of 0.4 ml/min to 0.8 ml/min and allowed to interact. The signals were detected and recorded at the Reichert SR7000 Surface Plasmon Resonance Analytical Instrument (Reichert Analytical, NY, USA). After each measurement the sensor chip surface was regenerated by a pulse with 100 mM phosphoric acid (Mallinckrodt Chemicals, NJ, USA) after each application of the samples. Association and dissociation signals were fitted to one association curve using a prism software calculation program.

[2] = target: T1, fibrinogen; test: Fibrinogen binding assay by ELISA; details: plate coated with 1 mg/ml fibrinogen, various concentrations, anti-His6-peroxidase detection
Method: as §1
Purified, proteins and peptides in different concentrations were used for testing the binding affinity to fibrinogen and fibrin (FIG. 5).

[3] = tested on: mouse myoblast cell line (C2C12); test: Biological activity: viability (MTT) assay of mouse myoblast C2C12 cells; format: cell-based; details: for proliferative activity / cell growth effect: 48 hours, DMEM+1% FCS, MTT
Method: A moose myoblast cell line (C2C12; ECACC (Sigma-Aldrich, Vienna)) was grown in Dulbecco's Modified Eagle Medium (DMEM) with 10% fetal calf serum (FCS). At 50-60% confluence cells were trypsinized and transferred to a 24-well plate (1×10^4/well).
Following a 48-hour-culture period at 37° C., cells were washed with DMEM only and then covered with medium (DMEM+1% FCS) containing various concentrations of hFGF-2 or hFGF-2 peptides. After 48 hours number of viable cells was determined by adding 3-(4,5-dimethylthiazol-2-yl)-2,5-diphenyltetrazolium bromide (MTT, Sigma-Aldrich, Vienna) as previously described {M05}.

Sequence	binding signal (SPR) [1]	binding affinity to fibrinogen [2]	activity retained relative to the full length protein ([3]; relative to full length hFGF-2)	binding affinity to fibrinogen ([2]; listed as Pep5)	proliferative activity / cell growth effect [3]	binding characteristics to fibrinogen (SPR) ([1]; compared to full-length recombinant hFGF-2)
EDGRLLASKCVTDECFFFERLESNNYNTYRSRHHHHH (EDGRLLASKCVTDECFFFERLESNNYNTYRSRHHHHH; synthetic peptide pep 3 (37 aa), peptide #3, pep3 with C-terminus 5x HIS-tag) [also expressed recombinantly]	weak and short binding signals	high affinity	approximately 50%			
FERLESNNYN TYRSRHHHHH (FERLESNNYNTYRSRHHHHH; synthetic peptide pep 5 (20 aa), peptide #5, pep5 with C-terminus 5x HIS-tag)	weak and short binding signals	nearly no binding affinity		little binding affinity	did not stimulate C2C12 cell growth; also recorded: little biological activity	
KCVTDECFFFERLESNNYNTYRSRHHHHH (KCVTDECFFFERLESNNYNTYRSRHHHHH; synthetic peptide pep 4 (29 aa), peptide #4, pep4 with C-terminus 5x HIS-tag)	significantly lower compared to hFGF-2 but more consistently over a longer period of 300 seconds; also recorded: lower binding signals than that of hFGF-2	significantly lower binding			less activity, but similar to full length hFGF-2	confirmed the binding affinity to fibrinogen
